Experimental data: paper PMC3741163, “CCL18 Exhibits a Regulatory Role through Inhibition of Receptor and Glycosaminoglycan Binding” (PLoS ONE, 2013)
Values joined by “and” are separate entries in the source; they are usually repeats but may differ in a detail not shown here. Equal values may be shown once.

T1: CCR3 (UniProt P51677 1-355)
T1 sequence (looked up): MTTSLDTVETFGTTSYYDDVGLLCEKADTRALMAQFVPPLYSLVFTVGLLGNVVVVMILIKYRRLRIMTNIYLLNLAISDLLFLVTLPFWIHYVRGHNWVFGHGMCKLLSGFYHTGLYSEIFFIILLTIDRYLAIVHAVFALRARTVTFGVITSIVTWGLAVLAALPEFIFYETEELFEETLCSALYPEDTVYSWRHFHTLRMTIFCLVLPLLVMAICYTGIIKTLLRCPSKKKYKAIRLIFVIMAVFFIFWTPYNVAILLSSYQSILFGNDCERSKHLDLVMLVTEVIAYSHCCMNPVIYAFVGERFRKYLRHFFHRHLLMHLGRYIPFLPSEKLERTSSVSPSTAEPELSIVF


How the values were obtained:
CCR3 [1] = molecular target: T1, CCR3; experiment: cell-based or functional assay
CCR3 [2] = molecular target: T1, CCR3; experiment: radioligand binding; equilibrium competition on L1.2/CCR3 transfectants, tracer 0.1 nM 125I-CCL18, 0.1 x10^6 cells/well, competitor 10^-6 to 10^-12 M, room temperature 4 h, filtration; conditions: one partner purified
CCR3 [3] = molecular target: T1, CCR3; experiment: cell-based or functional assay; remark: listed apart in the source
CCR3 [4] = molecular target: T1, CCR3; experiment: radioligand binding; equilibrium competition on L1.2/CCR3 transfectants, tracer 0.1 nM 125I-CCL11, 0.1 x10^6 cells/well, competitor 10^-6 to 10^-12 M, room temperature 4 h, filtration; conditions: one partner purified

Chain of CCL11 (P51671 24-97): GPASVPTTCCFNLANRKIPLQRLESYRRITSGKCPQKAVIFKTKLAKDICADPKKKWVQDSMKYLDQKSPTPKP

Binder | IC50 of CCL18 for inhibition of chemotaxis of L1.2/CCR3 transfectants to 1 nM CCL11 (mean of 7) (CCR3 [1]) [nM] | IC50 of CCL18 for inhibition of chemotaxis of L1.2/CCR3 transfectants to 10 nM CCL5 (CCR3 [1]) [nM] | IC50 of CCL18 for inhibition of chemotaxis of L1.2/CCR3 transfectants to 10 nM CCL26 (CCR3 [1]) [nM] | IC50 of CCL18 for inhibition of chemotaxis of L1.2/CCR3 transfectants to 100 nM CCL15 (CCR3 [1]) [nM] | IC50 (CCR3 [2]) | EC50 of CCL11-induced Ca2+ release in L1.2/CCR3 transfectants in the presence of 0 nM to 5 µM CCL18 (EC50 69.93 nM without CCL18, rising with the concentration) (CCR3 [3]) [nM] | IC50 of CCL18 for inhibition of chemotaxis of L1.2/CCR3 transfectants to 1 nM CCL11 (experiment shown in Figure 1A) (CCR3 [3]) [nM] | IC50 (CCR3 [4])
CCL18 (ligand, human, UniProt P55774 21-89, looked up, CCL18 chemokine, unlabelled; also called PARC; MIP-4; source: purchased from PeptroTech or produced as previously described [30]) AQVGTNKELCCLVYTSWQIPQKFIVDYSETSPQCPKPGVILLTKRGRQICADPNKKWVQKYISDLKLNA | 318 | 40.8 | 123 | 2.9 | 6.8 nM and 8.86 nM | 10500 | 397 | 
CCL11 (ligand, CCL11 chemokine, unlabelled; source: purchased from PeptroTech or produced as previously described [30]) not shown |  |  |  |  |  |  |  | 7.4 nM and 13.2 nM
